Assay results published in patent US20240002497A1 (Merck Sharp & Dohme, published 2024).
Residue numbers refer to the chain shown, from its start. Names and notes keep the numbering of the source.

B1: F010302338 (VHH)
VHH: EVQLVESGGGVVQPGGSLRLSCAASHRAFIRDVFTGWYRRAPGKQRELVARIYESGNTQYADSAKGRFTISRDNAKKTVYLQMNSLRPEDTALYYCLFSGTISTGREYRSGDYWGQGTLVTVSS
B2: F010302356 (VHH)
VHH: B1 VHH with V33L, Q59N, A64V
B3: F010302362 (VHH)
VHH: B1 VHH with R40Q, A64V
B4: F010302344 (VHH)
VHH: B1 VHH with A28Q, R40Q, E54N, S55E
B5: F010302351 (VHH)
VHH: B1 VHH with H26S, A28Q, A64V
B6: F010302346 (VHH)
VHH: B1 VHH with R40Q
B7: F010302350 (VHH)
VHH: B1 VHH with H26S, A28Q, E54N, S55E, A64V
B8: F010302342 (VHH)
VHH: B1 VHH with H26S, A28Q, R40Q, E54N, S55E
B9: F010302345 (VHH)
VHH: B1 VHH with A28Q, R40Q, S55G
B10: F010302360 (VHH)
VHH: B1 VHH with A28Q, R40Q, E54N, S55E, A64V
B11: F010302353 (VHH)
VHH: B1 VHH with A28Q, S55G, A64V
B12: F010302340 (VHH)
VHH: B1 VHH with V33L, Q59N
B13: F010302364 (VHH)
VHH: B1 VHH with V33L, R40Q, Q59N, A64V
B14: F010302352 (VHH)
VHH: B1 VHH with A28Q, E54N, S55E, A64V
B15: F010302348 (VHH)
VHH: B1 VHH with V33L, R40Q, Q59N
B16: F010302358 (VHH)
VHH: B1 VHH with H26S, A28Q, R40Q, E54N, S55E, A64V
B17: F010302354 (VHH)
VHH: B1 VHH with A64V
B18: F010302359 (VHH)
VHH: B1 VHH with H26S, A28Q, R40Q, A64V
B19: F010302361 (VHH)
VHH: B1 VHH with A28Q, R40Q, S55G, A64V
B20: F010302343 (VHH)
VHH: B1 VHH with H26S, A28Q, R40Q
B21: F010302312 (VHH)
VHH: EVQLVESGGGVVQPGGSLRLSCAASGPVFNINRMAWYRQAPGKQRELVAYVTPTGDISYADSVKGRFTISRDGSKRVYLQMNSLRPEDTALYYCRALLQPDSYSITRTYWGQGTLVTVSS
notes: also called F0103387G04(L11V, A12V, K33R, R39Q, S50Y, S56D, T60A, W78V, S79Y, T83R, V89L, N93R, N100cI)
B22: F010302320 (VHH)
VHH: B21 VHH with G73A, I105N
notes: also called F0103387G04(L11V, A12V, K33R, R39Q, S50Y, S56D, T60A, G73A, W78V, S79Y, T83R, V89L, N93R)
B23: F010301841 (VHH)
VHH: B21 VHH with A60T, V77W, Y78S, I105N
notes: also called F0103387G04(L11V, A12V, K33R, R39Q, S50Y, S56D, T83R, V89L, N93R)
B24: F010302325 (VHH)
VHH: B21 VHH with G73R, I105N
notes: also called F0103387G04(L11V, A12V, K33R, R39Q, S50Y, S56D, T60A, G73R, W78V, S79Y, T83R, V89L, N93R)
B25: F010301842 (VHH)
VHH: B21 VHH with V77W, Y78S, I105N
notes: also called F0103387G04(L11V, A12V, K33R, R39Q, S50Y, S56D, T60A, T83R, V89L, N93R)
B26: F010302317 (VHH)
VHH: B21 VHH with G73R, D101R
notes: also called F0103387G04(L11V, A12V, K33R, R39Q, S50Y, S56D, T60A, G73R, W78V, S79Y, T83R, V89L, N93R, D99R, N100cI)-FLAG3-HIS6
B27: F010302315 (VHH)
VHH: B21 VHH with D101R
notes: also called F0103387G04(L11V, A12V, K33R, R39Q, S50Y, S56D, T60A, W78V, S79Y, T83R, V89L, N93R, D99R, N100cI)
B28: F010301844 (VHH)
VHH: B21 VHH with A60T, R76N, V77W, Y78S, I105N
notes: also called F0103387G04(L11V, A12V, K33R, R39Q, S50Y, S56D, R76N, T83R, V89L, N93R)
B29: F010301847 (VHH)
VHH: B21 VHH with G73N, R76N, I105N
notes: also called F0103387G04(L11V, A12V, K33R, R39Q, S50Y, S56D, T60A, G73N, R76N, W78V, S79Y, T83R, V89L, N93R)
B30: F010301845 (VHH)
VHH: B21 VHH with A60T, Y78S, I105N
notes: also called F0103387G04(L11V, A12V, K33R, R39Q, S50Y, S56D, W78V, T83R, V89L, N93R)
B31: F010301848 (VHH)
VHH: B21 VHH with G73N, I105N
notes: also called F0103387G04(L11V, A12V, K33R, R39Q, S50Y, S56D, T60A, G73N, W78V, S79Y, T83R, V89L, N93R)
B32: F010301656 (VHH)
VHH: B21 VHH with V11L, V12A, Q39R, A60T, V77W, Y78S, R85T, L91V, I105N
notes: also called F0103387G04(K33R, S50Y, S56D, N93R)
B33: F010302313 (VHH)
VHH: B21 VHH with G73A
notes: also called F0103387G04(L11V, A12V, K33R, R39Q, S50Y, S56D, T60A, G73A, W78V, S79Y, T83R, V89L, N93R, N100cI)
B34: F010301843 (VHH)
VHH: B21 VHH with A60T, G73N, V77W, Y78S, I105N
notes: also called F0103387G04(L11V, A12V, K33R, R39Q, S50Y, S56D, G73N, T83R, V89L, N93R)
B35: F010302314 (VHH)
VHH: B21 VHH with G73R
notes: also called F0103387G04(L11V, A12V, K33R, R39Q, S50Y, S56D, T60A, G73R, W78V, S79Y, T83R, V89L, N93R, N100cI)
B36: F010301866 (VHH)
VHH: B21 VHH with R76N, I105N
notes: also called F0103387G04(L11V, A12V, K33R, R39Q, S50Y, S56D, T60A, R76N, W78V, S79Y, T83R, V89L, N93R)
B37: F010301846 (VHH)
VHH: B21 VHH with A60T, V77W, I105N
notes: also called F0103387G04(L11V, A12V, K33R, R39Q, S50Y, S56D, S79Y, T83R, V89L, N93R)

Target: T1, huNav1.7α + β1-β2-β3 (human, UniProt Q15858 1-1988; A5A6L6 19-218; O60939 30-215; Q2KI11 23-215)
T1 construct: also called huNav1.7-beta1-beta2-beta3; huNav1.7-β1-β2-β3
Experiment: binding FACS, CHO FlpIn
Procedure: (§1) Binding of the ISVDs to cell-expressed Nav1.7α was detected via murine anti-Flag (Sigma, catalog #F1804). Briefly, cells were resuspended in FACS buffer (PBS, 10% FBS, NaN₃) and transferred to a 96-well V-bottom plate at 1×10^5 cells/well. Purified FLAG3-tagged ISVD was diluted in FACS buffer and added to the cells for 30 minutes at 4° C. […] Prior to the read-out, the samples were resuspended in 1 μg/mL propidium iodide (Sigma, catalog #P4170) to exclude dead cells. Between each step, the cells were centrifuged for 5 minutes at 200 grams and washed with 100 μL/well FACS buffer.

Row | Binder | Bmax [%] | EC50 [nM]
1 | B1 | 100 | 3.4
2 | B2 | 100 | 5.3
3 | B3 | 100 | 5.4
4 | B4 | 100 | 4.3
5 | B5 | 100 | 5.6
6 | B6 | 100 | 5
7 | B7 | 100 | 3.5
8 | B8 | 100 | 4
9 | B9 | 100 | 4.9
10 | B10 | 100 | 3.5
11 | B11 | 100 | 4.2
12 | B12 | 100 | 4.6
13 | B13 | 100 | 7.2
14 | B14 | 100 | 3.6
15 | B15 | 100 | 6.7
16 | B16 | 100 | 4.5
17 | B17 | 100 | 4.2
18 | B18 | 100 | 6.4
19 | B19 | 100 | 4.8
20 | B20 | 100 | 6.4

Target: T2, rhNav1.7α + β1-β2-β3 (rhesus monkey)
T2 construct: also called rhNav1.7-beta1-beta2-beta3; rhNav1.7-β1-β2-β3
Experiment: binding FACS, CHO FlpIn
Procedure: as §1

Row | Binder | Bmax [%] | EC50 [nM]
21 | B1 | 100 | 7.9
22 | B2 | 81 | 12
23 | B3 | 89 | 14
24 | B4 | 78 | 13
25 | B5 | 72 | 15
26 | B6 | 99 | 12
27 | B7 | 46 | 15
28 | B8 | 61 | 16
29 | B9 | 96 | 12
30 | B10 | 58 | 15
31 | B11 | 93 | 7.9
32 | B12 | 96 | 13
33 | B13 | 74 | 17
34 | B14 | 60 | 11
35 | B15 | 95 | 14
36 | B16 | 37 | 37
37 | B17 | 96 | 7.9
38 | B18 | 66 | 24
39 | B19 | 92 | 11
40 | B20 | 84 | 18

Target: T3, huNav1.7α + β1-β2-β3 (human Nav1.7α co-expressed with human Navβ1, Navβ2 and Navβ3 on cells) (human)
T3 construct: also called huNav1.7-beta1-beta2-beta3; CHO FlpIn huNav1.7α + β1-β2-β3
Experiment: binding FACS, CHO FlpIn cells
Procedure: as §1

Row | Binder | Bmax [%] | EC50 [nM]
41 | B21 | 100 | 24
42 | B22 | 99 | 30
43 | B23 | 100 | 14
44 | B24 | 96 | 13
45 | B25 | 100 | 15
46 | B26 | 91 | 6.8
47 | B27 | 100 | 7.2
48 | B28 | 100 | 23
49 | B29 | 100 | 67
50 | B30 | 100 | 17
51 | B31 | 100 | 44
52 | B32 | 100 | 17
53 | B33 | 100 | 38
54 | B34 | 100 | 18
55 | B35 | 100 | 16
56 | B36 | 100 | 38
57 | B37 | 100 | 21

Target: T4, rhNav1.7α + β1-β2-β3 (rhesus Nav1.7α co-expressed with Navβ1, Navβ2 and Navβ3 on cells) (rhesus monkey (α subunit); β subunits …)
T4 construct: also called rhNav1.7-beta1-beta2-beta3; CHO FlpIn rhNav1.7α + β1-β2-β3
Experiment: binding FACS, CHO FlpIn cells
Procedure: as §1

Row | Binder | Bmax [%] | EC50 [nM]
58 | B21 | 100 | 18
59 | B22 | 100 | 21
60 | B23 | 100 | 7.6
61 | B24 | 99 | 8.7
62 | B25 | 100 | 7.9
63 | B26 | 13 | 19
64 | B27 | 23 | 39
65 | B28 | 100 | 11
66 | B29 | 100 | 29
67 | B30 | 100 | 8
68 | B31 | 100 | 19
69 | B32 | 100 | 8
70 | B33 | 96 | 34
71 | B34 | 100 | 9.3
72 | B35 | 98 | 14
73 | B36 | 100 | 18
74 | B37 | 100 | 11
